From article PMC12618784, “The ARVC-5-associated protein TMEM43 controls mitochondrial energy metabolism by stabilising ER-mitochondrial contact sites” (Cellular and Molecular Life Sciences: CMLS, 2025)

Target: T1, Dmel\Tmem43wt::TurboID (Drosophila, UniProt Q9VSB9 1-376)
T1 construct: Dmel\Tmem43 (CG8111), the Drosophila homologue of human TMEM43, wild type; Generated in this study; cloning details are available upon request; also called UAS-CG8111^WT-TurboID; source: transgenic Drosophila third-instar larvae, expressed in muscle with mef2-Gal4, in vivo and in lysate
T1 sequence (looked up): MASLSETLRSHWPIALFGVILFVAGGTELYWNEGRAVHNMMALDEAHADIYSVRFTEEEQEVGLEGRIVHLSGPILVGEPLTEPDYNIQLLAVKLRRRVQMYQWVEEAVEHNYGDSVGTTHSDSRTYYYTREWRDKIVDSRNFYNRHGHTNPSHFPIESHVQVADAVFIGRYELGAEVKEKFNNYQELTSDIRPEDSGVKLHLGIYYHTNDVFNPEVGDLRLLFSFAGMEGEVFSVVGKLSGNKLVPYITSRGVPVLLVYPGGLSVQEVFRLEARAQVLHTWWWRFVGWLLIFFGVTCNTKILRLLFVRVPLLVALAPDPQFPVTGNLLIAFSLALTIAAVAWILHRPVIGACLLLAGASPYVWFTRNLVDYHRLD
Experiment: proximity labelling; TurboID fusions expressed in muscle of third-instar larvae (mef2-Gal4); biotinylated proteins purified on streptavidin microbeads and identified by mass spectrometry
Conditions: partners not purified

B1: Porin (natural protein, UniProt Q94920 1-282, looked up)
chain: MAPPSYSDLGKQARDIFSKGYNFGLWKLDLKTKTSSGIEFNTAGHSNQESGKVFGSLETKYKVKDYGLTLTEKWNTDNTLFTEVAVQDQLLEGLKLSLEGNFAPQSGNKNGKFKVAYGHENVKADSDVNIDLKGPLINASAVLGYQGWLAGYQTAFDTQQSKLTTNNFALGYTTKDFVLHTAVNDGQEFSGSIFQRTSDKLDVGVQLSWASGTSNTKFAIGAKYQLDDDASVRAKVNNASQVGLGYQQKLRDGVTLTLSTLVDGKNFNAGGHKIGVGLELEA
notes: Porin, the fly homologue of the vertebrate voltage-dependent anion channels (VDACs), outer mitochondrial membrane; also called Porin/VDAC; fly homologue of the vertebrate voltage-dependent anion channels; source: endogenous, Drosophila third-instar larval extract
- fold stronger interaction than the p.S333L mutant (relative amounts of biotinylated protein): ~8 fold
